Test results as given in patent US5792457A, “Antibody recognizing endothelial cell ligand for leukocyte CR3” (priority 1995, dated 1998).

Assay: Overlay on thin-layer chromatography plates containing glycolipids
Assay type: binding
Source text: 2) The DNA sequence from nucleotide position 3674 to 4088 (bounded by XhoI sites) which corresponds to the CRD was amplified by the polymerase chain reaction and ligated into one of the pET expression vectors (Rosenberg et al. (1987), Gene 56, 125-135). Expression of the polypeptide in E. coli utilized the T7 RNA polymerase promoter system (Tabor, S. & Richardson, C.C. (1985), Proc. Natl. Acad. Sci. U.S.A. 82). [^35 S] […] Cell lysates containing the expressed protein were overlaid on thin-layer chromatography plates containing glycolipid standards and the binding pattern was compared to that of FHA.

B1: CRD protein: expressed polypeptide of FHA carbohydrate recognition domain, residues 1141-1279, 18kD (protein, UniProt P12255 1141-1279, looked up, fragment)
chain: LEHSTIESKISQSVLAAKGDKGKPAVSVKVAKKLFLNGTLRAVNDNNETMSGRQIDVVDGRPQITDAVTGEARKDESVVSDAALVADGGPIVVEAGELVSHAGGIGNGRNKENGASVTVRTTGNLVNKGYISAGKQGVL
binding to lactosylceramides (in words): bound to these carbohydrates in a pattern similar to FHA, especially in the ability to bind to lactosylceramides
